Data reported in patent US20110059102A1, “Therapeutic Method Targeting Midkine” (NATIONAL UNIVERSITY CORPORATION NAGOYA UNIVERSITY, priority 2009, published 2011).
“Also recorded” adds a separate entry of the source. Read-outs that look alike come from different tables or passages of the source.

How the values were obtained:
[1] = Body weight, blood urea nitrogen and serum creatinine after 5/6 nephrectomy, drug treatment model; type: in vivo; details: Mdk+/+ mice
Method: Animals and experimental design. Mice deficient in Mdk were generated as described previously (Genes Cells. 3:811-822). After backcrossing of Mdk+/− mice for 14 generations with 129/Sv mice, Mdk+/− mice were mated with each other to generate Mdk^+/+ and Mdk^−/− mice, which were used in this study. Experiments were performed on 8 to 12-week-old female mice weighing 20-25 g that were housed under controlled environmental conditions and maintained with standard food and water. Animal care and experimental procedures were approved by the Animal Experimentation Committee of the Nagoya University Graduate School of Medicine and were conducted according to the Nagoya University Regulations for Experiments. Renal ablation was performed as described previously. Briefly, mice were anesthetized by diethyl ether. The flank region was shaved, and the animals were placed on a heating pad to maintain a constant body temperature (37° C.). Under anesthesia, right flank incisions were made, and the right kidney was removed. Seven days later, mice were anesthetized as above, and two-thirds of the mass of the left kidneys was ablated (Mdk^+/+: 2 weeks, n=13; 4 weeks, n=13; 8 weeks, n=8; Mdk^−/−: 2 weeks, n=10; 4 weeks, n=10; 8 weeks, n=4). After the renal ablation, the flanks were closed in 2 layers with 5-0 silk sutures. The animals received 100 ml/kg warm saline instilled into the peritoneal cavity during the procedure and were allowed to recover with free access to food and water. In the control mice, a sham operation was performed (Mdk^+/+, n=11; Mdk^−/−, n=8).
(§1) Drug treatment model. In the drug treatment studies, Mdk^+/+ mice were randomly assigned to receive one of the following 5 treatments after 5/6 nephrectomy and were orally treated daily starting from 24 hours after 5/6 nephrectomy: vasodilator (hydralazine hydrochloride; Novartis) at a dose of 10 mg/kg/d (group 1, n=3); ACE inhibitor (temocapril; Daiichi Sankyo Co.) at a dose of 3 mg/kg/d (group 2, n=3); angiotensin receptor blocker (olmesartan; Daiichi Sankyo Co.) at a dose of 3 mg/kg/d (group 3, n=3); antioxidative reagent (tempol; Alexis Biochemicals) at a dose of 3 mmol/l in drinking solution after 5/6 nephrectomy (group 4, n=6); and sham operation (group 5, n=6). Drug treatment was performed […]. In the present study, we determined the dosage according to previous reports (Hypertension. 13:582-588, J. Cardiovasc. Pharmacol. 40:533-542, Hypertension. 43:841-848). Blood pressure was measured by the tail-cuff method at 2 weeks, as described below under Blood pressure monitoring. Mice were sacrificed at 2 weeks after 5/6 nephrectomy, and blood and tissue samples were collected.
Sample collection. Mice were sacrificed at 2, 4, and 8 weeks after 5/6 nephrectomy. The remnant kidney, lung, brain, heart, and liver were removed rapidly, snap-frozen in liquid nitrogen, and stored at −80° C. until examinations were performed. Each tissue was processed for histology, protein extraction, and RNA extraction. Blood samples were collected into chilled tubes for measurement of renal function parameters and into chilled tubes containing EDTA for Ang II measurements. Serum and plasma were separated by centrifugation (500 g for 10 minutes) and stored at −80° C. until measurement were performed. Serum creatinine, blood urea nitrogen (Mdk^+/+: sham, n=6; 2 weeks, n=10; 4 weeks, n=9; 8 weeks, n=8; Mdk^−/−: sham, n=7; 2 weeks, n=7; 4 weeks, n=6; 8 weeks, n=4), and Ang II concentrations (Mdk^+/+: sham, n=6; 2 weeks, n=6; 4 weeks, n=8; Mdk^−/−: sham, n=6; 2 weeks, n=7; 4 weeks, n=5) were measured by Mitsubishi BCL.

[2] = system: Mdk+/+ mice after 5/6 nephrectomy; experiment: Blood pressure by tail-cuff method, drug treatment model after 5/6 nephrectomy; type: in vivo; details: 2 weeks after 5/6 nephrectomy
Method: as §1
(§2) Blood pressure monitoring. Blood pressure was measured in restrained, conscious mice by the indirect tail-cuff technique under unstressed conditions (BP-98A; Softron) at 0, 2, 4, 6, and 8 weeks after 5/6 nephrectomy (J. Lab. Clin. Med. 78:957-962). Before measurement, the mice were warmed with a heating pad for 5 minutes. A total of 7-10 readings were taken for each mouse, at 1- to 2-minute intervals.

[3] = system: Mdk+/+ mice after 5/6 nephrectomy; experiment: Kidney histology (PAS staining) after 5/6 nephrectomy, drug treatment model; type: in vivo; details: 2 weeks after 5/6 nephrectomy
Method: as §1
Histology and immunohistochemistry.

MK = MK protein expression in lung and kidney by Western blotting after 5/6 nephrectomy; type: in vivo; details: Mdk+/+ mice after 5/6 nephrectomy
Method: as §1
Western blot analysis. Mouse kidney, lung, brain, heart, and liver tissues were snap-frozen in liquid nitrogen for protein isolation. […] The density of each band was measured using the public domain NIH Image program (http://rsb.info.nih.gov/nih-image/).

Ang II = experiment: Plasma Ang II concentration after 5/6 nephrectomy; type: in vivo; details: Mdk+/+ mice after 5/6 nephrectomy
Method: as §1, with “Mice were sacrificed at 2 weeks after 5/6 nephrectomy, and blood and tissue samples were collected.” left out
Sample collection. […] Serum creatinine, blood urea nitrogen (Mdk^+/+: sham, n=6; 2 weeks, n=10; 4 weeks, n=9; 8 weeks, n=8; Mdk^−/−: sham, n=7; 2 weeks, n=7; 4 weeks, n=6; 8 weeks, n=4), and Ang II concentrations (Mdk^+/+: sham, n=6; 2 weeks, n=6; 4 weeks, n=8; Mdk^−/−: sham, n=6; 2 weeks, n=7; 4 weeks, n=5) were measured by Mitsubishi BCL.

[4] = system: Mdk-/- mice after 5/6 nephrectomy; experiment: rh-MK and -PTN treatment model (osmotic pump), blood pressure by tail-cuff; type: in vivo; details: 1.6 mg/ml, 100 μl by osmotic pump over 14 days
Method: (§3) rh-MK and -PTN treatment model. In the pump study, MK protein in saline (1.6 mg/ml) (n=5), PTN in saline (1.6 mg/ml; n=5), or saline alone (n=5) was infused using an osmotic pump (ALZA Corp.) into Mdk^−/− mice after 5/6 nephrectomy. The pumps continuously infused a total of 100 μl over 14 days. The pumps were implanted under the dorsal skin the next day after 5/6 nephrectomy. Blood pressure was measured by the indirect tail-cuff technique at 0 and 2 weeks after 5/6 nephrectomy. Mice were sacrificed at 2 weeks after 5/6 nephrectomy, and blood and tissue samples were collected.
as §2

ACE [5] = experiment: rh-MK and -PTN treatment model, ACE expression in the lung by Western blotting; type: in vivo; details: Mdk-/- mice after 5/6 nephrectomy, 1.6 mg/ml, 100 μl by osmotic pump over 14 days
Method: as §3
Western blot analysis. Mouse kidney, lung, brain, heart, and liver tissues were snap-frozen in liquid nitrogen for protein isolation. Western blot analysis was performed as described previously (Br. J. Cancer. 75:354-359). The blots were subsequently incubated with goat anti-human MK antibody (dilution, 1:1,000), monoclonal anti-β-actin antibody (dilution, 1:1,000; Sigma-Aldrich), mouse anti-ACE monoclonal antibody (dilution, 1:1,000; Chemicon International, Millipore), or rabbit anti-phospho-PKC antibody (dilution, 1:1,000; Cell Signaling Technology), followed by incubation with peroxidase-conjugated goat IgG, mouse IgG, or rabbit IgG (dilution, 1:5,000; Jackson Immunoresearch Laboratories Inc.). […] The density of each band was measured using the public domain NIH Image program (http://rsb.info.nih.gov/nih-image/).

ACE [6] = experiment: ACE expression in HMVEC-L by Western blotting; type: cell-based, human; details: exogenous MK protein 100 ng/ml plus heparin 20 μg/ml
Excerpt: Histology and immunohistochemistry. The removed kidneys and lungs were fixed in 10% buffered formalin, embedded in paraffin, and then cut into 4-10.1 μm sections. The sections were stained with H&E, PAS, and Masson's trichrome. Another tissue sample was embedded in OCT compound (Sakura Finetek) and frozen in liquid nitrogen for immunostaining. Sections were cut to a thickness of 3 μm with a cryostat and fixed in acetone. High-power fields were used to examine the sections for evidence of focal sclerosis (J. Hypertens. 13:1785-1790, J. Lab. Clin. Med. 115:165-173). Glomerular sclerosis was assessed by semiquantitative score (grades 0 to +4) using the method of Raij et al. (Kidney Int. 26:137-143): grade 0, no sclerosis of glomeruli; grade 1, sclerosis of up to 25% of glomerulus; grade 2, sclerosis of 25%-50% of glomerulus; grade 3, sclerosis of 50%-75% of glomerulus; grade 4, sclerosis of 75%-100% of glomerulus. At least 50 glomeruli were evaluated under ×400 magnification and results averaged for each kidney (Mdk^+/+: 2 weeks, n=5; 4 weeks, n=4; 8 weeks, n=4; Mdk^−/−: 2 weeks, n=4; 4 weeks, n=3; 8 weeks, n=3). Immunostaining for ACE and MK was performed on buffered formalin-fixed tissues. Sections were deparaffinized, rehydrated, incubated in 3% hydrogen peroxide in methanol to block endogenous peroxidase, and washed in 10% normal goat serum (Dako) in PBS to block nonspecific binding. Subsequently, sections were incubated with mouse anti-ACE monoclonal antibody (dilution, 1:400; Chemicon International, Millipore) or anti-MK monoclonal antibody (dilution, 1:100) overnight at 4° C. as described previously (22), followed by a conjugate of polyclonal goat anti-mouse IgG antibody and HRP-labeled polymer (Histofine Simple Stain; Nichirei) for 1 hour at room temperature as a secondary antibody. The staining was visualized with 3-3′ diaminobenzidine (Nichirei) to produce a brown color. The sections were covered with 90% glycerol containing p-phenylenediamine and were examined by electron microscopy (H-7100; Hitachi). For double immunofluorescence staining of MK and thrombomodulin as a marker of the vascular endothelium, the cryosections of lungs were first incubated with chicken anti-human MK (dilution, 1:200) and then with rabbit anti-rat thrombomodulin (dilution, 1:1,000) (J. Immunol. 150:5633-5646), followed by incubation with FITC-labeled rabbit anti-chicken IgG (dilution, 1:160) and rhodamine-labeled goat anti-rabbit IgG (dilution, 1:320) as secondary antibodies. […] The lung and kidney section from each mouse was viewed under ×400 magnification, and then macrophages or neutrophils were counted from 10 fields and averaged. […]

HMVEC-L = experiment: Ang II concentration in HMVEC-L (conversion from Ang I to Ang II); type: cell-based, human; details: HMVEC-L treated 36 hours with MK 100 ng/ml plus heparin 20 μg/ml or heparin alone, then Ang I added
Method: Ang II concentration in HMVEC-L. After reaching confluence, HMVEC-L were washed with PBS and cultured for 24 hours in essential basal medium containing 0.5% FBS. These cells were exposed to 100 ng/ml rh-MK plus 20 μg/ml heparin or 20 μg/ml heparin alone in essential basal medium containing 0.5% FBS for 36 hours. After stimulation, HMVEC-L were washed with PBS and exposed to 500 pM Ang I (Sigma-Aldrich) for 10 and 25 minutes. Supernatants were collected into chilled tubes, and then the Ang II concentration was measured as previously described (Hypertension. 39:129-134).

PKC = experiment: Phospho-PKC expression in HMVEC-L by Western blotting; type: cell-based, human; details: exogenous MK 100 ng/ml plus heparin 20 μg/ml
Excerpt: Histology and immunohistochemistry. The removed kidneys and lungs were fixed in 10% buffered formalin, embedded in paraffin, and then cut into 4-10.1 μm sections. The sections were stained with H&E, PAS, and Masson's trichrome. Another tissue sample was embedded in OCT compound (Sakura Finetek) and frozen in liquid nitrogen for immunostaining. Sections were cut to a thickness of 3 μm with a cryostat and fixed in acetone. High-power fields were used to examine the sections for evidence of focal sclerosis (J. Hypertens. 13:1785-1790, J. Lab. Clin. Med. 115:165-173). Glomerular sclerosis was assessed by semiquantitative score (grades 0 to +4) using the method of Raij et al. (Kidney Int. 26:137-143): grade 0, no sclerosis of glomeruli; grade 1, sclerosis of up to 25% of glomerulus; grade 2, sclerosis of 25%-50% of glomerulus; grade 3, sclerosis of 50%-75% of glomerulus; grade 4, sclerosis of 75%-100% of glomerulus. At least 50 glomeruli were evaluated under ×400 magnification and results averaged for each kidney (Mdk^+/+: 2 weeks, n=5; 4 weeks, n=4; 8 weeks, n=4; Mdk^−/−: 2 weeks, n=4; 4 weeks, n=3; 8 weeks, n=3). Immunostaining for ACE and MK was performed on buffered formalin-fixed tissues. […] The lung and kidney section from each mouse was viewed under ×400 magnification, and then macrophages or neutrophils were counted from 10 fields and averaged. […]

[7] = system: retinal nerve degeneration model; details: prior injection of midkine; cited from earlier work
[8] = system: cerebral ischemia reperfusion insult model; details: cited from earlier work
[9] = system: acute myocardial infarction model; details: administration of midkine; cited from earlier work
[10] = compared with mouse MK produced in L cells; cited from earlier work
[11] = 2 weeks after nephrectomy, oral daily at indicated dose, mean ± SD

Molecule | BUN (blood urea nitrogen) [1, 11] | Cre (serum creatinine) [1, 11] | Abnormal elevation of blood urea nitrogen and serum creatinine ([1]; 2 weeks after 5/6 nephrectomy) | Blood pressure / hypertension [2] | Glomerular sclerosis [3] | Renal tubulointerstitial damage ([3]; PAS staining) | MK expression in the lung (MK; tempol 3 mmol/l in drinking water) | MK expression in the kidney (MK; tempol in drinking water) | Plasma Ang II levels (Ang II) | Hypertension (SBP) [4] | ACE expression in the lung (ACE [5]) | ACE expression in HMVEC-L (ACE [6]) | Conversion of Ang I to Ang II (HMVEC-L) | Phosphorylation levels of PKC (PKC) | Neuronal cell loss [7] | Loss of hippocampal neuronal cells ([8]; post-insult therapeutic administration) | Loss of hippocampal neuronal cells ([8]; prior ventricular administration of midkine) | Apoptotic loss of myocardial cells [9] | Neurotrophic activity [10]
CC1(C)CC(O)CC(C)(C)N1[O] [Tempol, 4-hydroxy-2,2,6,6-tetramethylpiperidine-N-oxyl] | 41.2 ± 3.9^B mg/dl | 0.25 ± 0.04^A mg/dl | significantly reduced | reduced | ameliorated | slight; also recorded: ameliorated | reduced MK expression to normal levels | reduced | reduced | – | – | – | – | – | – | – | – | – | –
MK: recombinant human midkine produced in Pichia pastoris; 13 kDa heparin-binding protein (protein, UniProt P21741 21-143, looked up) Midkine: VAKKKDKVKKGGPGSECAEWAWGPCTPSSKDCGVGFREGTCGAQTQRIRCRVPCNWKKEFGADCKYKFENWGACDGGTGTKVRQGTLKKARYNAQCQETIRVTKPCTPKTKAKAKAKKGKGKD | – | – | – | – | – | – | – | – | – | restore hypertension; also recorded: restored | restored | significantly enhanced; also recorded: induced | converted to Ang II in a time-dependent manner | increased | reduced | ineffective | able to remedy | reduction | comparable
